Test results: article PMC5521178

Tests used:
Experiment in all cases: fluorescence polarisation
[1] = target: FITC-labeled full-length caspase-7 C186A (UniProt P55210)
[2] = target: FITC-labeled full-length caspase-7 C186A phosphorylated by autoactivated PAK2 (UniProt P55210)
[3] = target: FITC-labeled full-length caspase-7 S30A/C186A (UniProt P55210)

Kd [1]: 1.8 µM
Kd [2]: > 27 µM
Kd [3]: 1.7 µM
Substance: caspase-9 constitutive dimer C287A (from UniProt P55211 1-416) (enzyme)
